These results are taken from patent publication US20240116985A1 (published 2024).

Starred links: 1 amine or outer side, 2 acyl side, 3 side chain; linkers in the order of their positions; H or OH if unused. Positions of bridges follow the written chain, without caps; N, C: chain ends. Non-standard residues stand in square brackets, D forms with d. Primed or numbered codes have the meaning given here. B5(11) = 2,2-bis(4-pentenyl)glycine = 2-amino-2-(pent-4-en-1-yl)hept-6-enoic acid (stitching residue, bears both staples), C=CCCCC(CCCC=C)(N[*:1])C(=O)[*:2]; PyrS2(3) = (S)-3-amino-1-((pent-4-en-1-yloxy)carbonyl)pyrrolidine-3-carboxylic acid, stapling residue, C=CCCCOC(=O)N1CC[C@@](N[*:1])(C(=O)[*:2])C1; B5(18) = 2,2-bis(4-pentenyl)glycine (2-amino-2-(pent-4-en-1-yl)hept-6-enoic acid), stitching residue, C=CCCCC(CCCC=C)(N[*:1])C(=O)[*:2]; B5(4) = 2,2-bis(4-pentenyl)glycine = 2-amino-2-(pent-4-en-1-yl)hept-6-enoic acid (stitching residue), C=CCCCC(CCCC=C)(N[*:1])C(=O)[*:2]; TfeGA = (S)-2-amino-3-((carboxymethyl)(2,2,2-trifluoroethyl)amino)propanoic acid, O=C([C@H](CN(CC(=O)[*:3])CC(F)(F)F)N[*:1])[*:2]; HypEs5 = (2R,4S)-4-(pent-4-enoyloxy)pyrrolidine-2-carboxylic acid, C=CCCC(=O)O[C@H]1C[C@H](C(=O)[*:2])N([*:1])C1; TriAzDap = Dap whose side chain is a 1H-1,2,3-triazol-1-yl bearing the bracketed 4-substituent; Phe(3-COOH) = N[C@@H](Cc1cccc(C(=O)O)c1)C(=O)O; Phe(2-Cl) = N[C@@H](Cc1ccccc1Cl)C(=O)O; Bta = N[C@@H](Cc1csc2ccccc12)C(=O)O; αAllylPro = C=CC[C@@]1(C(=O)O)CCCN1; NMeH = CN[C@@H](Cc1c[nH]cn1)C(=O)O; tBuAla = CC(C)(C)C[C@H](N)C(=O)O; 3Thi = N[C@@H](Cc1ccsc1)C(=O)O; S8 = C=CCCCCCC[C@](C)(N)C(=O)O

To fix the notation:
B1: I-748 (peptide)
peptide: XDLXDEAAFNXFXT
modifications: not fully specified; as printed: Ac-PL3-Asp-Leu-B5-Asp-Glu-Ala-Ala-Phe-Asn-S8-Phe-BztA-Thr-NH2; N-terminal Ac, C-terminal NH2; stapled by olefin metathesis PL3(1)-B5(4) and B5(4)-S8(11)
notes: Stapled peptide composition
B2: I-749 (peptide)
peptide: XDLXDEAAFNXFXT
modifications: not fully specified; as printed: Ac-PL3-Asp-Leu-B5-Asp-Glu-Ala-Ala-Phe-Asn-S8-Phe-BztA-Thr-NH2; N-terminal Ac, C-terminal NH2; stapled by olefin metathesis PL3(1)-B5(4) and B5(4)-S8(11)
notes: Stapled peptide composition

The target in one test is T1, full-length beta-Catenin (Uniprot ID P35222) (Homo sapiens (Human), UniProt P35222 2-781).
T1 construct: Also used here for the endogenous beta-catenin of the DLD1 TCF reporter cells; also called bCat; B-Catenin
T1 sequence: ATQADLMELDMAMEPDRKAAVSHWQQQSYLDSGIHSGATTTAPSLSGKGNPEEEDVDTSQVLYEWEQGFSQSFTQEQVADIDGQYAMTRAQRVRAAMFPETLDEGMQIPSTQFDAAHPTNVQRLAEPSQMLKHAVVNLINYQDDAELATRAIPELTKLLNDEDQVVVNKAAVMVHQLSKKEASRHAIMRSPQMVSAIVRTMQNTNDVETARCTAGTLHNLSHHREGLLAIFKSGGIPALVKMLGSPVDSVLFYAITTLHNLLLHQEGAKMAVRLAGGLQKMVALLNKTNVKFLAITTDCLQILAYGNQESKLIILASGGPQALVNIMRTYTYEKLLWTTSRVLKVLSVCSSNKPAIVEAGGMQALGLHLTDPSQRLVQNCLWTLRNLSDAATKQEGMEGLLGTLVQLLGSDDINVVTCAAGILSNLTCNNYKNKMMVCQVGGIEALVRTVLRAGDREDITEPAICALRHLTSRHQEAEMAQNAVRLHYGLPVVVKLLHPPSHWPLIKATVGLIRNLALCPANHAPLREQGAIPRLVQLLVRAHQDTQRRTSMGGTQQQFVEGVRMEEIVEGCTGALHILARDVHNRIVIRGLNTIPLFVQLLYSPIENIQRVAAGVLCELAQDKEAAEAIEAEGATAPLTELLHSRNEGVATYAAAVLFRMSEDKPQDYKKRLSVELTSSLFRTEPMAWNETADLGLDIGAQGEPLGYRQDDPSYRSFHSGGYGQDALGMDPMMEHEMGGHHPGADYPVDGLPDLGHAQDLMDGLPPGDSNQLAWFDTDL
Briefly: fluorescence polarization competition; full-length beta-catenin, competitor 5FAM-TCF4(10-53) probe. In a few lines: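 Readings followed a light-protected 60-minute incubation at 20° C. Each read was done in duplicate. Curves were fit with a 1:1 binding model including hill slope, and stated concentrations are final.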
A word on the EC50: it is the concentration at which the effect is half-maximal. Low readings indicate greater potency, high ones weaker potency. Regarding Ac-[αAllylPro]DL[B5(4)]DEAAFN[S8]F[Bta]S-NH2 (staple 1-4, 4-11; also: olefin E/Z not assigned, earlier-eluting staple isomer, Stapled peptide composition) [I-750], the EC50 came to 0.043 µM.
Ac-[αAllylPro]DL[B5(4)]DEAAFN[S8]F[Bta][dT]-NH2 (staple 1-4, 4-11; also: earlier-eluting HPLC peak (staple isomer), Stapled peptide composition) [I-754] registered an EC50 of 0.115 µM.
With Ac-[αAllylPro]DL[B5(11)]DEAAFN[S8]F[Bta][NMeH]-NH2 (staple 1-4, 4-11; not fully specified, Stapled peptide composition) [I-747], the EC50 amounted to 2.39 µM.
For B1, a half-maximal response (EC50) required 0.054 µM. This EC50 lies about 44-fold lower than the previous one.
For B2, the response was half-maximal at 0.04 µM (EC50).
For Ac-[αAllylPro]DL[B5(4)]DEAAFN[S8]F[Bta][dT]-NH2 (staple 1-4, 4-11; also: later-eluting HPLC peak (staple isomer), Stapled peptide composition) [I-755], it took 0.088 µM to reach a half-maximal effect (EC50).

A further test addresses T2, B-cat-Halo (beta-catenin HaloTag construct expressed in HEK293 cells) (UniProt P35222 1-781).
T2 sequence (looked up): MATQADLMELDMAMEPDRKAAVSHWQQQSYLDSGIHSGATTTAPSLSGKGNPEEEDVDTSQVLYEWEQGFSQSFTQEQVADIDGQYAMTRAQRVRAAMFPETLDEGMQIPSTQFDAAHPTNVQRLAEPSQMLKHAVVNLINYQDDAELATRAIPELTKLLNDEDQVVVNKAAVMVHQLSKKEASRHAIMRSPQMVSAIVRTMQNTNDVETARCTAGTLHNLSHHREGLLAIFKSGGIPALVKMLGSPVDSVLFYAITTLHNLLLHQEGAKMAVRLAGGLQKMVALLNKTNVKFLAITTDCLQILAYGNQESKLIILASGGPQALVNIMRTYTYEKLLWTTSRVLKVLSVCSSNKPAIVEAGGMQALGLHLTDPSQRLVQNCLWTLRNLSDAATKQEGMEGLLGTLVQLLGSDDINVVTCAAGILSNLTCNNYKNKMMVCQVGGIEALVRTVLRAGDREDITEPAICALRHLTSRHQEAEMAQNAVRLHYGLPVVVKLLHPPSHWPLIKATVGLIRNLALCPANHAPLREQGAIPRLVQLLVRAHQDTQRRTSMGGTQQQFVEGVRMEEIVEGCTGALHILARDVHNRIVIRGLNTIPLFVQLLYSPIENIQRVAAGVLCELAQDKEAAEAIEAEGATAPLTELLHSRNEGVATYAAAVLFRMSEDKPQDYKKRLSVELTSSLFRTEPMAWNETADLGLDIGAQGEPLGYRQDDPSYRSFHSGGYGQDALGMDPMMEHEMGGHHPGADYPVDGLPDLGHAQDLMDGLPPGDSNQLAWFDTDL
Briefly: cell-based or functional assay.
Consider Ac-[αAllylPro]D[tBuAla][B5(18)]D[Phe(3-COOH)]AAFL[PyrS2(3)][Phe(2-Cl)][Bta]-NH2 (staple 1-4, 4-11) [I-1852], for which the “NanoBRET Abs IC50” value is 4.9 µM.
Consider Ac-[HypEs5]D[tBuAla][B5(18)]D[TfeGA]AAFT[PyrS2(3)][Phe(2-Cl)][Bta]Q-NH2 (staple 1-4, 4-11) [I-1846], for which the “NanoBRET Abs IC50” value was 29.8 µM.
With Ac-[αAllylPro]D[tBuAla][B5(18)]D[TfeGA]AAF[TriAzDap](CH2NMe2)[PyrS2(3)][3Thi][Bta]Q-NH2 (staple 1-4, 4-11; not fully specified) [I-1861], the “NanoBRET Abs IC50” value stood at 37.3 µM.
As to Ac-[HypEs5]D[tBuAla][B5(18)]D[Phe(3-COOH)]AAFL[PyrS2(3)][Phe(2-Cl)][Bta]Q-NH2 (staple 1-4, 4-11) [I-1847], the “NanoBRET Abs IC50” value came to 26.2 µM.
Regarding Ac-[αAllylPro]D[tBuAla][B5(18)]DC(2COOH4NO2Ph)AAFL[PyrS2(3)][3Thi][Bta]Q-NH2 (staple 1-4, 4-11) [I-1848], the “NanoBRET Abs IC50” value is over 20 µM.
Turning to Ac-[αAllylPro]D[tBuAla][B5(18)]D[Phe(3-COOH)]AAFL[PyrS2(3)][Phe(2-Cl)][Bta]A-NH2 (staple 1-4, 4-11) [I-1851], the “NanoBRET Abs IC50” value turned out to be 3.8 µM.
Turning to Ac-[αAllylPro]D[tBuAla][B5(18)]D[Phe(3-COOH)]AAFV[PyrS2(3)][Phe(2-Cl)][Bta]S-NH2 (staple 1-4, 4-11) [I-1850], the “NanoBRET Abs IC50” value was determined as 3.8 µM.
Same read-out and setting: under Ac-[αAllylPro]N[tBuAla][B5(18)]D[Phe(3-COOH)]AAFL[PyrS2(3)][Phe(2-Cl)][Bta]S-NH2 (staple 1-4, 4-11) [I-1853] stands 16.3 µM.
